From paper PMC5997990 come the findings set out here.

Assay [1] deals with T7 helicase-primase gp4A' (wild-type helicase) (bacteriophage T7) (UniProt P03692).
The target is the same in assay [2]. Nature of the assay: single-molecule optical trapping (DNA unzipping force); helicase and DNAP in solution with a tethered forked dsDNA, 2 mM dTTP; after helicase unwound ~1000 bp under 9 pN the remaining DNA was unzipped mechanically at 2000 bp/s; a force-rise above the naked DNA baseline shows protein bound across the fork junction; 50 mM Tris-HCl pH 7.5, 40 mM NaCl, 10% glycerol; 25 ± 1 °C.

“T7 DNA polymerase (gp5/trx complex), exo- gp5 (D5A, D7A) with E. coli thioredoxin (from UniProt P00581 1-704; P0AA25 1-109)”: in assay [1], the replication re-initiation efficiency after collision with a stalled E. coli TEC, normalised against the TEC formation efficiency came out at 15%; the traces that passed a stalled co-directional E. coli TEC and went over to unwinding with leading-strand synthesis, 0.5 mM dNTP each, 5 pN was determined as 12%. In assay [2], this substance had a peak of the force-rise of 26 pN and a percent of traces with a force-rise above the naked DNA baseline of 75%.
